From patent publication US20060099150A1 (published 2006) come the findings set out here.

In general, Kd refers to the free concentration of one partner at which half of the binding sites on the other are occupied at equilibrium, for simple one-to-one binding. Read a high Kd as lower affinity. What is called koff is the rate constant with which the complex falls apart. Low values mean a long-lived complex, high ones a short-lived complex. In general, kon refers to the second-order rate constant of association.

For this assay, the target named is T1, pIgR Domain 6 GST (D6-GST) fusion protein, species not stated (Schistosoma japonica, UniProt P08515 1-218 = GST).
T1 construct: also called D6-GST constructs
Nature of the assay: SPR BIAcore, 1:1 Langmuir global fit 62.5-1000 nM; ligand not named. On the technique in general: In SPR one partner is held on a chip, and binding of the other changes the refractive index at the surface.

T1 sequence (P08515 whole entry, the tested form may be a part): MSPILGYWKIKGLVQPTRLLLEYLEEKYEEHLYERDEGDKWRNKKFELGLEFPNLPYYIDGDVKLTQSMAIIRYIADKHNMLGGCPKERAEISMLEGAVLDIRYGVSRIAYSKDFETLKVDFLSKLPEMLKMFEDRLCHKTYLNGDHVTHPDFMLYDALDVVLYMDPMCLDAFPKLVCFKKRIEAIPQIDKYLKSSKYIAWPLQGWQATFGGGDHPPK

B1: sFv5AF-Cys (scFv)
scFv: DYKAKQVQLVQSGGGVVQPGRSLRLSCAASGFTFSSYAMHWVRQAPGKGLEWVSAISGSGGSTYYADSVKGRFTISRDNAKNSLYLQMNSLRAEDTAVYYCARDTRGYFDLWGRGTLVTVSSGGGGSGGGGSGGGGSSELTQDPAMSVALGQTVRITCQGDSLRKYHASWYQQRPRQAPRLVVYGKNERPSGIPERFSGSTSGDTASLTISGLQAEDEADYYCHSRDSNADLVVFGGGTKVTVLGGGGGSCAAAEQKLISEEDLNGAAHHHHHH
notes: also called s5AF-Cys; sFv5AF-Cys starting material
In the case of B1, the Ka was 9.84e+06 M⁻¹, binding was characterised by a dissociation constant (Kd) of 102 nM, the off-rate (koff) stood at 0.00464 s⁻¹ and the kon was 37600 M⁻¹ s⁻¹.

B2: single chain antibody sFv5A (scFv)
scFv: QVQLQQSGGGVVQPGRSLRLSCAASGFTFSSYAMHWVRQAPGKGLEWVSAISGSGGSTYYADSVKGRFTISRDNAKNSLYLQMNSLRAEDTAVYYCARDTRGYFDLWGRGTLVTVSSGGGGSGGGGSGGGGSSELTQDPAMSVALGQTVRITCQGDSLRKYHASWYQQRPRQAPRLVVYGKNERPSGIPERFSGSTSGDTASLTISGLQAEDEADYYCHSRDSNADLVVFGGGTKVTVLGAAAEQKLISEEDLNGAAHHHHHH
notes: also called sFv (positive control)
B2 gave a Ka of 6.31e+06 M⁻¹, a Kd of 158 nM, a dissociation rate constant (koff) of 0.00464 s⁻¹ and an association rate constant (kon) of 29300 M⁻¹ s⁻¹.
